As usually defined, the Kd is the equilibrium constant for the complex coming apart.

The test has as its target T1, human CD28 on peripheral blood CD3+ T lymphocytes (human, UniProt P10747 19-220).
T1 construct: whole, on cells; Target of the receptor occupancy flow cytometry assay on blood T cells of study subjects; also called CD28 receptor
Kind of test: Kd recalculated in the PK/target engagement model from receptor occupancy observed by flow cytometry in humans (cohort A); not a direct in vitro measurement.

B1: FR104, humanized pegylated monovalent anti-CD28 Fab' antibody fragment (Fab, V domains shown)
VH: QVQLQQSGAELKKPGASVKVSCKASGYTFTEYIIHWIKLRSGQGLEWIGWFYPGSNDIQYNAQFKGKATLTADKSSSTVYMELTGLTPEDSAVYFCARRDDFSGYDALPYWGQGTLVTVSA
VL: DIQMTQSPSSLSASVGDRVTITCKTNENIYSNLAWYQQKDGKSPQLLIYAATHLVEGVPSRFSGSGSGTQYSLTISSLQPEDFGNYYCQHFWGTPCTFGGGTKLEIKR
modifications: pegylated at its C-terminus: bi-branched 2x20 kDa PEG linked to the C-terminal cysteine via a maleimide ring
notes: also called FR104-PEG; anti-CD28.3 Fab
Take B1: the Kd is ~0.3 nM.

The values above are taken from patent US20250051446A1 (OSE IMMUNOTHERAPEUTICS, published 2025).
